# Results taken from the RNAGym collection of RNA variant scans (doi:10.1093/nar/gkz1192).
# B1: CPEB3 Ribozyme (parent)
# chain: UAACAGGGGGCCACAGCAGAAGCGUUCACGUCGCAGCCCCUGUCAGAUUCUGGUGAAUCUGCGAAUUCUGCUGUAUAUCUC
# Variants of: B1
# Test: self-cleavage, relative activity (ratio to wild type); higher = more cleavage; in vitro, sequencing
# Outline: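 After error-prone PCR and barcoding, CPEB3 ribozyme mutant libraries were transcribed with T7 RNA polymerase at 37°C for 5 hours, then given 15 min with DNase I before an EDTA stop, and they cleaved during both steps. Reverse transcription with template switching preceded Illumina sequencing. Relative activity divides a variant's cleaved/total read fraction by the unmutated ribozyme's. At least 5 reads were required per variant, and three batches were averaged.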
row,Variant,self-cleavage
1,C11A U72A,0.15
2,C11A U72C,0.52
3,C11A U74C,0.6
4,C11A U78A,0.47
5,C11A U78C,0.31
6,C11A U80C,0.5
7,C11G,0.52
8,C11G A13G,0.32
9,C11G A13U,0.75
10,C11G A15C,0.62
11,C11G A15G,0.58
12,C11G A15U,0.39
13,C11G A18G,0.54
14,C11G A18U,0.39
15,C11G A20G,0.56
16,C11G A20U,0.12
17,C11G A21C,0.08
18,C11G A21G,0.3
19,C11G A28G,0.24
20,C11G A35C,0.33
21,C11G A35G,0.56

row,Variant,self-cleavage
1,C11G A35U,0.18
2,C11G A45C,0.07
3,C11G A45G,0.35
4,C11G A45U,0.23
5,C11G A47G,0.61
6,C11G A56C,0.38
7,C11G A56U,0.28
8,C11G A57G,0.43
9,C11G A57U,0.39
10,C11G A64G,0.4
11,C11G A64U,0.16
12,C11G A65G,0.21
13,C11G A75G,0.41
14,C11G A75U,0.78
15,C11G A77G,0.64
16,C11G C14U,0.93
17,C11G C17U,0.19
18,C11G C32A,0.31
19,C11G C32U,0.16
20,C11G C34G,0.38
21,C11G C39A,0.38

row,Variant,self-cleavage
1,C11G C39G,0.11
2,C11G C44G,0.32
3,C11G C71U,0.16
4,C11G C81U,0.86
5,C11G G19C,0.48
6,C11G G30U,0.09
7,C11G G36U,0.09
8,C11G G42U,0.37
9,C11G G46U,0.1
10,C11G G55A,0.14
11,C11G G55U,0.55
12,C11G G63U,0.66
13,C11G G70A,0.26
14,C11G G70U,0.23
15,C11G G73C,0.97
16,C11G U25A,0.1
17,C11G U25C,0.22
18,C11G U26A,0.34
19,C11G U26C,0.24
20,C11G U31A,0.33
21,C11G U31C,0.22

row,Variant,self-cleavage
1,C11G U31G,0.27
2,C11G U41A,0.25
3,C11G U41C,0.67
4,C11G U43A,0.67
5,C11G U43C,0.29
6,C11G U48C,0.11
7,C11G U49A,0.6
8,C11G U49G,0.31
9,C11G U51A,0.31
10,C11G U51C,0.41
11,C11G U54A,0.28
12,C11G U54C,0.49
13,C11G U58A,0.39
14,C11G U60A,0.12
15,C11G U60C,0.29
16,C11G U60G,0.21
17,C11G U66A,0.49
18,C11G U66C,0.21
19,C11G U67A,0.27
20,C11G U67C,0.16
